From patent US20090149339A1 (published 2009)
Ends that are not written are not given here. * marks the point of attachment. Biotin = O=C1N[C@H]2[C@H](CS[C@H]2CCCCC(=O)*)N1

Experiments:
[1] = target: T1, GST-CASK PDZ domain fusion protein (CASK AA495-584; PDZ domain 1 of 1) (mouse, UniProt P08515 1-218 = GST); assay: A/G assays
T1 construct: also called mCASK

[2] = target: GST-LIM PDZ domain fusion protein (Human LIM protein AA29-112; PDZ domain 1 of 1) (human, UniProt P08515 1-218 = GST); assay: A/G assays
Chain of GST-LIM PDZ domain fusion protein (Human LIM protein AA29-112; PDZ domain 1 of 1) (P08515 1-218, tags or fused parts left off): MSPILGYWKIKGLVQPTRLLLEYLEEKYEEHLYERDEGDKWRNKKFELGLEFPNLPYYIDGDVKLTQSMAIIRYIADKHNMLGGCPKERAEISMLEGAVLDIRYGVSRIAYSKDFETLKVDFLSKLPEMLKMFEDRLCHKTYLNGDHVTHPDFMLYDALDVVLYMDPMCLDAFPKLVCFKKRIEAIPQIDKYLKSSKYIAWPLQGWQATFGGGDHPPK

[3] = target: GST-LIMK2 PDZ domain fusion protein (human LIM domain kinase 2 AA185-275; PDZ domain 1 of 1) (human, UniProt P08515 1-218 = GST); assay: A/G assays
[4] = target: T2, GST-MPP2 PDZ domain fusion protein (maguk p55 subfamily member 2 (DLG2) AA185-273; PDZ domain 1 of 1) (UniProt P08515 1-218 = GST); assay: A/G assays
T2 construct: also called MMP2
T2 sequence (P08515 1-218, tags or fused parts left off): as above

[5] = target: GST-NOS1 PDZ domain fusion protein (human neuronal nitric oxide synthase; PDZ domain 1 of 1) (human, UniProt P08515 1-218 = GST); assay: A/G assays
Chain of GST-NOS1 PDZ domain fusion protein (human neuronal nitric oxide synthase; PDZ domain 1 of 1) (P08515 1-218, tags or fused parts left off): as above

[6] = target: GST-AF6 PDZ domain fusion protein (af-6 protein AA985-1077; PDZ domain 1 of 1) (UniProt P08515 1-218 = GST); assay: A/G assays
Chain of GST-AF6 PDZ domain fusion protein (af-6 protein AA985-1077; PDZ domain 1 of 1) (P08515 1-218, tags or fused parts left off): as above

[7] = target: T3, GST-PTN-4 PDZ domain fusion protein (protein-tyrosine phosphatase meg1 AA774-862; PDZ domain 1 of 1) (UniProt P08515 1-218 = GST); assay: A/G assays
T3 sequence (P08515 1-218, tags or fused parts left off): as above

[8] = target: GST-prIL16 PDZ domain fusion protein (putative interleukin 16 precursor AA170-383; PDZ domains 1-2 of 2) (UniProt P08515 1-218 = GST); assay: A/G assays
Chain of GST-prIL16 PDZ domain fusion protein (putative interleukin 16 precursor AA170-383; PDZ domains 1-2 of 2) (P08515 1-218, tags or fused parts left off): as above

[9] = target: T4, GST-KIAA0559 PDZ domain fusion protein (KIAA0559 AA766-870; PDZ1 of 1) (UniProt P08515 1-218 = GST); assay: A/G assays
T4 construct: also called K559
T4 sequence (P08515 1-218, tags or fused parts left off): as above

[10] = target: T5, GST-MPP1 PDZ domain fusion protein (55 Kd erythrocyte membrane protein AA101-186; PDZ domain 1 of 1) (UniProt P08515 1-218 = GST); assay: A/G assays
T5 sequence (P08515 1-218, tags or fused parts left off): as above

[11] = target: T6, GST-RGS12 PDZ domain fusion protein (human regulator of G-protein signalling 12 AA35-103; PDZ domain 1 of 1) (human, UniProt P08515 1-218 = GST); assay: A/G assays
T6 construct: also called RSG12
T6 sequence (P08515 1-218, tags or fused parts left off): as above

[12] = target: T7, GST-KIAA0316 PDZ domain fusion protein (KIAA0316 AA197-284; PDZ domain 1 of 1) (UniProt P08515 1-218 = GST); assay: A/G assays
T7 construct: also called K316
T7 sequence (P08515 1-218, tags or fused parts left off): as above

[13] = target: T8, GST-DVL1 PDZ domain fusion protein (human dishevelled segment polarity protein homolog AA248-340); PDZ domain … (human, UniProt P08515 1-218 = GST); assay: A/G assays
T8 sequence (P08515 1-218, tags or fused parts left off): as above

[14] = target: T9, GST-TAX40 PDZ domain fusion protein (human tax interaction protein 40 AA35-137; PDZ domain 1 of 1) (human, UniProt P08515 1-218 = GST); assay: A/G assays
T9 construct: also called TX 40
T9 sequence (P08515 1-218, tags or fused parts left off): as above

[15] = target: GST-TIAM1 PDZ domain fusion protein (T-lymphoma invasion and metastasis inducing protein 1 AA1001-1088); PDZ 1 … (UniProt P08515 1-218 = GST); assay: A/G assays
Chain of GST-TIAM1 PDZ domain fusion protein (T-lymphoma invasion and metastasis inducing protein 1 AA1001-1088); PDZ 1 … (P08515 1-218, tags or fused parts left off): as above

[16] = target: T10, GST-KIAA0303 PDZ domain fusion protein (KIAA0303 AA652-742; PDZ domain 1 of 1) (UniProt P08515 1-218 = GST); assay: A/G assays
T10 construct: also called K303
T10 sequence (P08515 1-218, tags or fused parts left off): as above

[17] = target: T11, GST-CBP PDZ domain fusion protein (Cytohesin binding protein HE AA85-175; PDZ domain 1 of 1) (UniProt P08515 1-218 = GST); assay: A/G assays
T11 construct: also called Prot
T11 sequence (P08515 1-218, tags or fused parts left off): as above

[18] = target: GST-MINT3 PDZ domain fusion protein (human MINT3 AA11-52; PDZ domain 1 of 1) (human, UniProt P08515 1-218 = GST); assay: A/G assays
Chain of GST-MINT3 PDZ domain fusion protein (human MINT3 AA11-52; PDZ domain 1 of 1) (P08515 1-218, tags or fused parts left off): as above

[19] = target: T12, GST-TAX2 PDZ domain fusion protein (human tax interaction protein 2 AA54-140; PDZ domain 1 of 1) (human, UniProt P08515 1-218 = GST); assay: A/G assays
T12 construct: also called TX 2
T12 sequence (P08515 1-218, tags or fused parts left off): as above

[20] = target: T13, GST-TAX33 PDZ domain fusion protein (tax interaction protein 33 AA73-162; PDZ domain 1 of 1) (UniProt P08515 1-218 = GST); assay: A/G assays
T13 construct: also called TX33
T13 sequence (P08515 1-218, tags or fused parts left off): as above

[21] = target: T14, GST-SYN1a PDZ domain fusion protein (alpha1-syntrophin AA96-189; PDZ domain 1 of 1) (UniProt P08515 1-218 = GST); assay: A/G assays
T14 construct: also called SYN 1 alpha; SYNTR 1 alpha
T14 sequence (P08515 1-218, tags or fused parts left off): as above

[22] = target: T15, GST-TAX43 PDZ domain fusion protein (human tax interaction protein 43 AA15-85; PDZ domain 1 of 1) (human, UniProt P08515 1-218 = GST); assay: A/G assays
T15 construct: also called TX 43
T15 sequence (P08515 1-218, tags or fused parts left off): as above

[23] = target: T16, GST-PSD95 PDZ domain fusion protein (human post-synaptic density protein 95 AA387-724; PDZ domains 1-3 of 3) (human, UniProt P08515 1-218 = GST); assay: G assay, peptide titrated on immobilized GST-PDZ, saturation fit (apparent affinity)
Excerpt: (§1) FIGS. 2A and 2B show the Apparent Affinity Determination for PDZ-Ligand Interactions. […] The binding to GST alone (<0.2 OD units) was subtracted from the binding to the fusion proteins to obtain the signal at each peptide concentration.

[24] = target: T17, GST-NeDLG PDZ domain fusion protein (presynaptic protein sao102, neuroendocrine-dlg; PDZ domains 1-2 of 3) (UniProt P08515 1-218 = GST); assay: as above
T17 construct: also called NeDLG1
T17 sequence (P08515 1-218, tags or fused parts left off): as above
Excerpt: as §1

[25] = target: T5, GST-MPP1 PDZ domain fusion protein (55 …); assay: A assay
[26] = target: T8, GST-DVL1 PDZ domain fusion protein …; assay: A assay
[27] = target: T12, GST-TAX2 PDZ domain fusion protein …; assay: A assay
[28] = target: T15, GST-TAX43 PDZ domain fusion protein …; assay: A assay
[29] = target: T2, GST-MPP2 PDZ domain fusion protein …; assay: G assay
[30] = target: T14, GST-SYN1a PDZ domain fusion protein …; assay: G assay
[31] = target: T3, GST-PTN-4 PDZ domain fusion protein …; assay: A and G assays
[32] = target: T18, GST-41.8 kD PDZ domain fusion protein (hypothetical 41.8 kD protein AA4-85; PDZ domain 1 of 1) (UniProt P08515 1-218 = GST); assay: A and G assays
T18 construct: also called hypoth

[33] = target: T6, GST-RGS12 PDZ domain fusion protein …; assay: A and G assays
[34] = target: T16, GST-PSD95 PDZ domain fusion protein …; assay: A and G assays
[35] = target: T17, GST-NeDLG PDZ domain fusion protein …; assay: A and G assays

Binder	binding result [1]	binding result [2]	binding result [3]	binding result [5]	binding result [6]	binding result [8]	binding result [9]	binding result [12]	binding result [14]	binding result [15]	binding result [16]	binding result [17]	binding result [18]	binding result [20]	other results
Biotin-KDITSDSENSNFRNEIQSLV [CD95 (Apo-1/Fas) C-terminal PL peptide AA13L, biotinylated]	no binding	no binding	no binding	no binding	no binding	no binding	no binding	no binding	no binding	no binding	no binding	no binding	no binding	no binding	binding result [4]: no binding; binding result [7]: no binding; binding result [10]: no binding; binding result [11]: no binding; binding result [13]: no binding; binding result [19]: no binding; binding result [21]: no binding; binding result [22]: no binding; Kd [23]: 85 µM; Kd [24]: 54 µM
Biotin-LNSCSNRRVYKKMPSIESDV [NMDA C-terminal PL peptide AA34.2L, biotinylated]	no binding	no binding	no binding	no binding	no binding	no binding	no binding	no binding	no binding	no binding	no binding	no binding	no binding	no binding	binding result [25]: binds; binding result [26]: binds; binding result [27]: binds; binding result [28]: binds; binding result [29]: binds; binding result [30]: binds; binding result [31]: binds; binding result [32]: binds; binding result [33]: binds; binding result [34]: binds; binding result [35]: binds
